Assay [1] addresses T1, recombinant human IL1RAP ECD (human, UniProt Q9NPH3 21-367).
T1 construct: His-tagged; also called hIL1RAP-ECD; rhuIL1RAP
T1 sequence: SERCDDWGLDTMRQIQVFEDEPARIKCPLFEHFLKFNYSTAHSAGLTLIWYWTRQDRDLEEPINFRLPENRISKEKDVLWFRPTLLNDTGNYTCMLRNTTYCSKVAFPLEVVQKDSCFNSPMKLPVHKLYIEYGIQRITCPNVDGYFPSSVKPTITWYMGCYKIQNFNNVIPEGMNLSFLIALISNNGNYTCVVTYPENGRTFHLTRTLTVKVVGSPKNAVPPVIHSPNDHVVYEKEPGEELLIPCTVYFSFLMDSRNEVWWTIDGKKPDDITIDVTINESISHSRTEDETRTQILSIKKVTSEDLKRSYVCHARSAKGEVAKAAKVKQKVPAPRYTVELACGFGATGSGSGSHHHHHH
The assay is described as follows: SPR, summary.

The target in assay [2] is T1, recombinant human IL1RAP ECD. The assay is described as follows: SPR (ProteOn).
Assay [3] has the same target. The assay is described as follows: SPR; KD against parent IAPB54. Background: SPR reads the build-up and loss of mass on a sensor chip optically.
For assay [4] the target is unchanged. Kind of assay: SPR.
The target of assay [5] is T2, recombinant cyno IL1RAP ECD (cynomolgus monkey, UniProt P59822 21-367 (rhesus entry)).
T2 construct: also called rcynoIL1RAP
T2 sequence: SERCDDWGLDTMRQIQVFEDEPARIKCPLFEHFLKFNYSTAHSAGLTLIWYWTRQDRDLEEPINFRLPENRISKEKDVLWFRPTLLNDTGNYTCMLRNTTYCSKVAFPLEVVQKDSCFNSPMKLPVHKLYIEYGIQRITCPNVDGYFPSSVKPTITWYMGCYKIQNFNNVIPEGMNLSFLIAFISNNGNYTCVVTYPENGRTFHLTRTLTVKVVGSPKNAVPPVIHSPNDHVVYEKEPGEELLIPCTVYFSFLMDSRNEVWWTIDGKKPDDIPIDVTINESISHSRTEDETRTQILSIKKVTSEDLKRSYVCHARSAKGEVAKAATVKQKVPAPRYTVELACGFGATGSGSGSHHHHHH
The assay is described as follows: SPR.

Assay [6] addresses T1, recombinant human IL1RAP ECD. The assay is described as follows: SPR. The source holds these as a separate data set.
The target of assay [7] is T2, recombinant cyno IL1RAP ECD. The assay is described as follows: SPR. The source holds these as a separate data set.
The target in assay [8] is T1, recombinant human IL1RAP ECD. The assay is described as follows: SPR, summary. The source holds these as a separate data set.
Assay [9] addresses T2, recombinant cyno IL1RAP ECD. Kind of assay: SPR, summary.
Assay [10] deals with T3, mouse IL1RAP ECD displayed on HEK-293F cells (pDisplay) (mouse, UniProt Q61730 21-367).
T3 sequence: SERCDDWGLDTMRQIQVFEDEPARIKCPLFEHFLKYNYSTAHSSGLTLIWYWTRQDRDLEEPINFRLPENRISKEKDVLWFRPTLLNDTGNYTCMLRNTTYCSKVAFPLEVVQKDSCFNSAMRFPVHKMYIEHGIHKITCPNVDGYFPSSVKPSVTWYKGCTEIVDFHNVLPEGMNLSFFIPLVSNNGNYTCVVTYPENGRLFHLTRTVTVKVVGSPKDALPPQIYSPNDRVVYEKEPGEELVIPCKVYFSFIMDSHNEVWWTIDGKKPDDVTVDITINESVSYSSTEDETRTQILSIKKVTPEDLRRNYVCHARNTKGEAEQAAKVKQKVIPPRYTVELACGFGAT
Kind of assay: Murine Binder, summary.

In assay [11] the target is T4, human IL1RAP on cells (endogenous) (human, UniProt Q9NPH3 21-570).
T4 sequence (looked up): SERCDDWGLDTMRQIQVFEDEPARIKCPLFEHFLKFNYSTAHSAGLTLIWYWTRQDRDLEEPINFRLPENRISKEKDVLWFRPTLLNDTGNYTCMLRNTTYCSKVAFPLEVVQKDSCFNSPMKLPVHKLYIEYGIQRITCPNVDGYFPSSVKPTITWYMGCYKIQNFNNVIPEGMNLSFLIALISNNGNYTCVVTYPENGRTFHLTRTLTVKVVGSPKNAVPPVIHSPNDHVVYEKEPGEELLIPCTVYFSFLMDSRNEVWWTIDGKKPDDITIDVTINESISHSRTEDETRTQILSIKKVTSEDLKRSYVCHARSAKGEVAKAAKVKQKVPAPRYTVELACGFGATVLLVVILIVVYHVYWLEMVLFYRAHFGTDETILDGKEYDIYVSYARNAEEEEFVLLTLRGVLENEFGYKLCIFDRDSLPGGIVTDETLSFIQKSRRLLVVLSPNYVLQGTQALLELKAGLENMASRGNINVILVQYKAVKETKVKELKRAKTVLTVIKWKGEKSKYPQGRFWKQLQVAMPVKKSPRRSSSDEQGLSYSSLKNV
Kind of assay: cell-based or functional assay.

Assay [12] has as its target T1, recombinant human IL1RAP ECD. The assay is described as follows: SPR; human KD over cyno KD.

B1: IAPB64 (antibody, human IgG4 S228P, lambda, F234A L235A, V domains shown)
VH: QVQLVQSGSELKKPGASVKVSCKASGYTFNTYAMNWVRQAPGQGLEWMGWINTNTGNPTYAQGFTGRFVFSLDTSVSTAYLQISSLKAEDTAVYYCARRYFDWLLGAFDIWGQGTMVTVSS
VL: QSALTQPRSVSGSPGHSVTISCTGTSSDVGDYNYVSWYQQRPGKVPKLLIYDVSKRPSGVPDRFSGSKSGNTASLTISGLQAEDEAIYFCSSYAGNYNVVFGGGTKLTVLG
notes: IgG4-PAA; whole chains; also called IAPB54-LC-C91S
Turning to B1, in assay [1], the Kd (in general, the constant that tells how readily two partners part at equilibrium) was 0.38 nM. In assay [2], the Kd amounted to 0.367 nM; the koff (usually a measure of how fast the partners let go of each other) is 0.000234 s⁻¹; the kon (as a rule, the rate constant with which the complex forms) was 638000 M⁻¹ s⁻¹. Moreover, the “Fold Different from parent” value in [3] stood at 4.7 fold.

B2: IC3B2 (bispecific antibody, human IgG4 S228P, kappa, lambda, F234A L235A)
heavy 1: EVQLVESGGGLVQPGGSLKLSCAASGFTFNTYAMNWVRQASGKGLEWVGRIRSKYNAYATYYAASVKGRFTISRDDSKNTAYLQMNSLKTEDTAVYYCTRHGNFGNSYVSWFAYWGQGTLVTVSSASTKGPSVFPLAPCSRSTSESTAALGCLVKDYFPEPVTVSWNSGALTSGVHTFPAVLQSSGLYSLSSVVTVPSSSLGTKTYTCNVDHKPSNTKVDKRVESKYGPPCPPCPAPEAAGGPSVFLFPPKPKDTLMISRTPEVTCVVVDVSQEDPEVQFNWYVDGVEVHNAKTKPREEQFNSTYRVVSVLTVLHQDWLNGKEYKCKVSNKGLPSSIEKTISKAKGQPREPQVYTLPPSQEEMTKNQVSLTCLVKGFYPSDIAVEWESNGQPENNYKTTPPVLDSDGSFLLYSKLTVDKSRWQEGNVFSCSVMHEALHNHYTQKSLSLSLGK
light 1: QAVVTQEPSLTVSPGGTVTLTCRSSTGAVTTSNYANWVQQKPGQAPRGLIGGTNKRAPGTPARFSGSLLGGKAALTLSGAQPEDEAEYYCALWYSNLWVFGGGTKLTVLGQPKAAPSVTLFPPSSEELQANKATLVCLISDFYPGAVTVAWKADSSPVKAGVETTTPSKQSNNKYAASSYLSLTPEQWKSHRSYSCQVTHEGSTVEKTVAPTECS
heavy 2: not shown
light 2: not shown
notes: IgG4-PAA, Fab arm exchange; also called IAPB38 x CD3B220
For the molecule B2, the Kd was 7.36 nM in [4]; 16.9 nM in [5]; 7.36 nM in assay [6]; 16.9 nM in [7]; 7.36 nM in assay [8]; 16.9 nM in assay [9]. Besides, the figures for the koff in assay [4] and in assay [5] were 0.000827 s⁻¹ and 0.00223 s⁻¹, respectively. In addition, the kon came to 112000 M⁻¹ s⁻¹ in assay [4] and 132000 M⁻¹ s⁻¹ in assay [5]. Also, the binding result in assay [10] was “binds”. In addition, in assay [11], the “EC50, T-cell mediated cytotoxicity” value came out at 0.077 nM. Moreover, in assay [12], the “Hu/Cyno KD Ratio” value was 0.4.

B3: IC3B11 (bispecific antibody, human IgG4 S228P, kappa, lambda, F234A L235A)
heavy 1: EVQLVESGGGLVQPGGSLKLSCAASGFTFNTYAMNWVRQASGKGLEWVGRIRSKYNAYATYYAASVKGRFTISRDDSKNTAYLQMNSLKTEDTAVYYCTRHGNFGNSYVSWFAYWGQGTLVTVSSASTKGPSVFPLAPCSRSTSESTAALGCLVKDYFPEPVTVSWNSGALTSGVHTFPAVLQSSGLYSLSSVVTVPSSSLGTKTYTCNVDHKPSNTKVDKRVESKYGPPCPPCPAPEAAGGPSVFLFPPKPKDTLMISRTPEVTCVVVDVSQEDPEVQFNWYVDGVEVHNAKTKPREEQFNSTYRVVSVLTVLHQDWLNGKEYKCKVSNKGLPSSIEKTISKAKGQPREPQVYTLPPSQEEMTKNQVSLTCLVKGFYPSDIAVEWESNGQPENNYKTTPPVLDSDGSFLLYSKLTVDKSRWQEGNVFSCSVMHEALHNHYTQKSLSLSLGK
light 1: QAVVTQEPSLTVSPGGTVTLTCRSSTGAVTTSNYANWVQQKPGQAPRGLIGGTNKRAPGTPARFSGSLLGGKAALTLSGAQPEDEAEYYCALWYSNLWVFGGGTKLTVLGQPKAAPSVTLFPPSSEELQANKATLVCLISDFYPGAVTVAWKADSSPVKAGVETTTPSKQSNNKYAASSYLSLTPEQWKSHRSYSCQVTHEGSTVEKTVAPTECS
heavy 2: not shown
light 2: not shown
notes: IgG4-PAA, Fab arm exchange; also called IAPB9 x CD3B220
Turning to B3, the Kd in assay [4] was 4.56 nM; in assay [5], 5.27 nM; in assay [6] it was 4.56 nM; in [7] it was 5.27 nM; in assay [8], 4.56 nM; in assay [9] it was 5.27 nM. The koff in assay [4] was 0.00354 s⁻¹; in assay [5], 0.00409 s⁻¹. The kon in [4] and in assay [5] was 776000 M⁻¹ s⁻¹ throughout. Further, the binding result in [10] is reported as “binds”. Further, the “EC50, T-cell mediated cytotoxicity” value in assay [11] worked out at 1.32 nM. The “Hu/Cyno KD Ratio” value in assay [12] was 0.9.

B4: IC3B7 (bispecific antibody, human IgG4 S228P, kappa, lambda, F234A L235A)
heavy 1: EVQLVESGGGLVQPGGSLKLSCAASGFTFNTYAMNWVRQASGKGLEWVGRIRSKYNAYATYYAASVKGRFTISRDDSKNTAYLQMNSLKTEDTAVYYCTRHGNFGNSYVSWFAYWGQGTLVTVSSASTKGPSVFPLAPCSRSTSESTAALGCLVKDYFPEPVTVSWNSGALTSGVHTFPAVLQSSGLYSLSSVVTVPSSSLGTKTYTCNVDHKPSNTKVDKRVESKYGPPCPPCPAPEAAGGPSVFLFPPKPKDTLMISRTPEVTCVVVDVSQEDPEVQFNWYVDGVEVHNAKTKPREEQFNSTYRVVSVLTVLHQDWLNGKEYKCKVSNKGLPSSIEKTISKAKGQPREPQVYTLPPSQEEMTKNQVSLTCLVKGFYPSDIAVEWESNGQPENNYKTTPPVLDSDGSFLLYSKLTVDKSRWQEGNVFSCSVMHEALHNHYTQKSLSLSLGK
light 1: QAVVTQEPSLTVSPGGTVTLTCRSSTGAVTTSNYANWVQQKPGQAPRGLIGGTNKRAPGTPARFSGSLLGGKAALTLSGAQPEDEAEYYCALWYSNLWVFGGGTKLTVLGQPKAAPSVTLFPPSSEELQANKATLVCLISDFYPGAVTVAWKADSSPVKAGVETTTPSKQSNNKYAASSYLSLTPEQWKSHRSYSCQVTHEGSTVEKTVAPTECS
heavy 2: not shown
light 2: not shown
notes: IgG4-PAA, Fab arm exchange; also called IAPB17 x CD3B220
Regarding B4, the Kd came to 6.1 nM in assay [4]; 4.74 nM in assay [5]; 6.1 nM in [6]; 4.74 nM in assay [7]; 6.1 nM in [8]; 4.74 nM in [9]. The koff in assay [4] turned out to be 0.00659 s⁻¹; in assay [5], 0.00583 s⁻¹. In addition, the on-rate (kon) in assay [4] was found to be 1.08e+06 M⁻¹ s⁻¹; in assay [5] it was 1.23e+06 M⁻¹ s⁻¹. Further, the binding result in assay [10] is “binds”. For the same molecule, the “EC50, T-cell mediated cytotoxicity” value in [11] is 3.4 nM. Also, the “Hu/Cyno KD Ratio” value in assay [12] is 1.3.
